A word on the IC50: it is the concentration that inhibits the measured activity by half.

The target in experiment [1] is T1, hαvβ1 (Homo sapiens, UniProt P05556+P06756).
T1 construct: expressed in transfected cells
Put plainly: Integrin cell-based ELISA (CELISA) binding, CHOK1-human αvβ1 cells. Conditions: FIG. 3C. As for the experimental part: (§1) Integrin cell-based ELISA (CELISA) assay. Cell binding EC50 data for antibodies were obtained for CHOK1 parental cells and CHOK1 cells expressing human or mouse αvβ1, αvβ6, and αvβ1 integrins by cell-based ELISA. Three days prior to the assay cells were seeded at 10,000 cells per well in 100 μL/well of media in Falcon 96-well Flat-Bottom Tissue Culture Plates (REF 353916), resulting in an even cell monolayer in each well on the day of the assay. On the day of the assay, media was removed from the cells and a fivefold titration of primary antibodies was added at concentrations ranging from 0 to 200 nM in TBSF+MnCl2 buffer (25 mM Tris, 0.15 M NaCl, 0.1% BSA, 0.5 mM MnCl2, pH 7.5). Cells incubated with primary antibody solution for 1 hour at room temperature. Primary antibody was removed and plates were washed twice with 150 μL/well of 1×DPBS+Tween 20 (TEKnova Cat #β0297, diluted to 1× in distilled water GIBCO #15230-147), before adding 50 μL/well of a 1:5000 dilution of HRP-conjugated goat anti-mouse IgG (Southern Biotech, #1030-05) in TBSF+MnCl2. After 30 minutes of incubation at room temperature, secondary antibody was removed, and cells were washed twice with 150 μL/well of 1×DPBS+Tween 20. […] Absorbance was read on a TECAN plate reader at 450 nm, with a 620 nm reference wavelength.

In experiment [2] the target is T2, hαvβ6 (Homo sapiens, UniProt P06756+P18564).
T2 construct: expressed in transfected cells
The experiment is described as follows: Integrin cell-based ELISA (CELISA) binding, CHOK1-human αvβ6 cells. To be noted: FIG. 3C. The procedure: as §1
For orientation: ELISA stands for enzyme-linked immunosorbent assay.

Experiment [3] concerns the target T3, mαvβ3 (Mus musculus, UniProt O54890+P43406).
T3 construct: The full extracellular domains for all α and β integrin subunits; (GGGS)3 linker (C); acidic coiled-coil with cysteine (C); GG-Avitag (C); hexa-histidine tag (C); basic coiled-coil with cysteine (C); made in house; host or cells: Expi293 cells
The experiment is described as follows: Mouse AlphaLISA integrin-ligand blocking assay (vitronectin). The class given is biochemical. Conditions: Table 12; read-out: IC50 Mouse integrin AlphaLISA assays mαvβ3. As for the experimental part: (§2) Integrin AlphaLISA assay. In the AlphaLISA integrin assays, we used a HEPES based buffer (25 mM HEPES pH 7.4, 137 mM NaCl, 1 mM MgCl2, 1 mM MnCl2, 2 mM CaCl2, 2.7 mM KCl, and 0.05% Tween 20). Optimal assay conditions were determined with a titration of the reagents for signal noise ratio (S/N), linear range, etc. For the respective integrins, we used the final concentrations described in Table 9.
(§3) Briefly, the testing antibody (8 μL) was added as a 4×(of Final testing concentration) solution in the HEPES buffer described previously into a 384w AlphaPlate™ (Perkin Elmer #6005350). Then the integrin and ligand were added sequentially as 8×(4 μL each). Plates were sealed and incubated at room temperature for two hours. Then 4×acceptor bead solution ([…]) was added, and the plates were resealed and incubated at room temperature (RT) for one hour. Finally, 4×([…]) donor beads solution was added in a darkened room and incubated for 45 minutes at room temperature. Plates were read on the Envision (Perkin Elmer) in AlphaScreen™ mode within three hours of donor bead addition.
(In Alpha technology, singlet oxygen from a donor bead excites a nearby acceptor bead.)

The target in experiment [4] is T4, mαvβ5 (Mus musculus, UniProt O70309+P43406).
T4 construct: The full extracellular domains for all α and β integrin subunits; (GGGS)3 linker (C); acidic coiled-coil with cysteine (C); GG-Avitag (C); hexa-histidine tag (C); basic coiled-coil with cysteine (C); made in house; host or cells: Expi293 cells
The description is as above. Type of experiment: biochemical. Conditions: Table 12; read-out: IC50 Mouse integrin AlphaLISA assays mαvβ5. As for the experimental part: as §2, §3

Experiment [5] has as its target T5, mαvβ6 (Mus musculus, UniProt P43406+Q9Z0T9).
T5 construct: The full extracellular domains for all α and β integrin subunits; (GGGS)3 linker (C); acidic coiled-coil with cysteine (C); GG-Avitag (C); hexa-histidine tag (C); basic coiled-coil with cysteine (C); made in house; host or cells: Expi293 cells
The experiment is described as follows: Mouse AlphaLISA integrin-ligand blocking assay (LAP). The class given is biochemical. To be noted: Table 12; read-out: IC50 Mouse integrin AlphaLISA assays mαvβ6. As for the experimental part: as §2, §3

Experiment [6] has as its target T6, mαvβ8 (Mus musculus, UniProt P43406+Q0VBD0).
T6 construct: The full extracellular domains for all α and β integrin subunits; (GGGS)3 linker (C); acidic coiled-coil with cysteine (C); GG-Avitag (C); hexa-histidine tag (C); basic coiled-coil with cysteine (C); made in house; host or cells: Expi293 cells
The description is as above. To be noted: Table 12; read-out: IC50 Mouse integrin AlphaLISA assays mαvβ8. The class given is biochemical. The procedure: as §2, §3

In experiment [7] the target is T7, mα5β1 (Mus musculus, UniProt P09055+P11688).
T7 construct: The full extracellular domains for all α and β integrin subunits; (GGGS)3 linker (C); acidic coiled-coil with cysteine (C); GG-Avitag (C); hexa-histidine tag (C); basic coiled-coil with cysteine (C); made in house; host or cells: Expi293 cells
Put plainly: Mouse AlphaLISA integrin-ligand blocking assay (fibronectin). The class given is biochemical. To be noted: Table 12; read-out: IC50 Mouse integrin AlphaLISA assays mα5β1. The procedure:
as §2, §3

For experiment [8], the target named is T8, mαvβ1 (Mus musculus, UniProt P09055+P43406).
T8 construct: The full extracellular domains for all α and β integrin subunits; (GGGS)3 linker (C); acidic coiled-coil with cysteine (C); GG-Avitag (C); hexa-histidine tag (C); basic coiled-coil with cysteine (C); made in house; host or cells: Expi293 cells
Described as above. The class given is biochemical. Conditions: Table 12; read-out: IC50 Mouse integrin AlphaLISA assays mαvβ1. The procedure:
as §2, §3

In experiment [9] the target is T9, human αvβ1 (Homo sapiens, UniProt P05556+P06756).
T9 construct: expressed in transfected cells
Put plainly: Latent TGFβ activation assay, TMLC / CHOK1-integrin co-culture (PAI-1 luciferase). Type of experiment: cell-based. To be noted: FIG. 5B. The procedure:
(§4) Latent TGFβ activation assay. Transfected mink lung epithelial cell (TMLC) cell line containing the TGFβ responsive PAI-1 promoter driving luciferase expression (Mazzieri et al, Methods Mol. Biol. 142, 13-27 (2000)) and the CHO-K1 human and mouse αvβ×integrin cell lines were grown under optimized growth conditions to 90% confluency. TMLC cells were trypsinized and plated at 25,000 cells/well in 50 μL in Costar clear bottom white walled plates. In a separate plate, 25 μL of serially diluted antibodies at 4×concentration were added to wells containing 25 μL of either 25,000 cells of human or mouse αvβ×cells. After a brief mixing, the 50 μL mixture was transferred to the TMLC cell plates for a total volume of 100 μL and incubated at 37° C. for 16 hours. 100 μL of ONE-Glo kit (#PRE6120) was added to each well and read after three to five minutes on the Envision plate reader.

Experiment [10] addresses T10, human αvβ6 (Homo sapiens, UniProt P06756+P18564).
T10 construct: expressed in transfected cells
Described as above. The class given is cell-based. To be noted: FIG. 5B. The procedure:
as §4

The target in experiment [11] is T11, human αvβ8 (Homo sapiens, UniProt P06756+P26012).
T11 construct: expressed in transfected cells
The description is as above. The class given is cell-based. Conditions: FIG. 5B. As for the experimental part:
as §4

The target in experiment [12] is T12, mouse αvβ1 (Mus musculus, UniProt P09055+P43406).
T12 construct: expressed in transfected cells
The description is as above. Type of experiment: cell-based. Conditions: FIG. 5B. The procedure:
as §4

The target in experiment [13] is T13, mouse αvβ6 (Mus musculus, UniProt P43406+Q9Z0T9).
T13 construct: expressed in transfected cells
The experiment is described as above. The class given is cell-based. Conditions: FIG. 5B. As for the experimental part: as §4

The target of experiment [14] is T14, mouse αvβ8 (Mus musculus, UniProt P43406+Q0VBD0).
T14 construct: expressed in transfected cells
The description is as above. Type of experiment: cell-based. To be noted: FIG. 5B. The procedure:
as §4

The subject of experiment [15] is IPF patient lung fibroblasts. The experiment is described as follows: αSMA imaging, TGFβ-induced αSMA expression. Type of experiment: cell-based, human. Conditions: TGFβ 5 ng/mL, 48 hours, read-out: IC50 of αSMA expression. As for the experimental part: αSMA imaging. Primary cells (passage 3-5) were grown on Cell carrier Ultra, collagen Type 1 coated 96-well plates (Perkin Elmer, #6055700) at a density of 25,000 cells/well. Once the cells adhere, they were starved in serum free media for 24 hours followed by addition of treatments, i.e., 5 ng/mL TGFβ (Biolegend #580702)±inhibitors. Cells were pre-treated with inhibitors for 30 minutes prior to the addition of TGFβ stimulation. 48 hours post treatment, the cells were fixed in 4% methanol free paraformaldehyde (ThermoFisher Scientific #28908) for 20 minutes at room temperature and incubated with anti-alpha smooth muscle Actin antibody (Abcam #ab7817) at 1:4000 overnight at 4° C. Following primary antibody incubation, cells were incubated with Goat anti-mouse secondary antibody (ThermoFisher Scientific #A32723) at 1:500 and Hoechst (ThermoFisher Scientific #62249) at 1:1000 for one hour at RT. The fixed and stained cells were images for immunofluorescence on Perkin Elmer's Opera Phenix high content Imager.

Experiment [16] concerns the target hα5β1 (Homo sapiens, UniProt P05556+P08648). Put plainly: Human AlphaLISA integrin-ligand blocking assay (fibronectin). Details: The full extracellular domains for all α and β integrin subunits; (GGGS)3 linker (C); acidic coiled-coil with cysteine (C); GG-Avitag (C); hexa-histidine tag (C); basic coiled-coil with cysteine (C); made in house; host or cells: Expi293 cells. Type of experiment: biochemical. Conditions: Table 11; read-out: IC50 Human integrin AlphaLISA assays hα5β1. As for the experimental part:
as §2, §3

T3 sequence (P43406 31-988 limits assumed): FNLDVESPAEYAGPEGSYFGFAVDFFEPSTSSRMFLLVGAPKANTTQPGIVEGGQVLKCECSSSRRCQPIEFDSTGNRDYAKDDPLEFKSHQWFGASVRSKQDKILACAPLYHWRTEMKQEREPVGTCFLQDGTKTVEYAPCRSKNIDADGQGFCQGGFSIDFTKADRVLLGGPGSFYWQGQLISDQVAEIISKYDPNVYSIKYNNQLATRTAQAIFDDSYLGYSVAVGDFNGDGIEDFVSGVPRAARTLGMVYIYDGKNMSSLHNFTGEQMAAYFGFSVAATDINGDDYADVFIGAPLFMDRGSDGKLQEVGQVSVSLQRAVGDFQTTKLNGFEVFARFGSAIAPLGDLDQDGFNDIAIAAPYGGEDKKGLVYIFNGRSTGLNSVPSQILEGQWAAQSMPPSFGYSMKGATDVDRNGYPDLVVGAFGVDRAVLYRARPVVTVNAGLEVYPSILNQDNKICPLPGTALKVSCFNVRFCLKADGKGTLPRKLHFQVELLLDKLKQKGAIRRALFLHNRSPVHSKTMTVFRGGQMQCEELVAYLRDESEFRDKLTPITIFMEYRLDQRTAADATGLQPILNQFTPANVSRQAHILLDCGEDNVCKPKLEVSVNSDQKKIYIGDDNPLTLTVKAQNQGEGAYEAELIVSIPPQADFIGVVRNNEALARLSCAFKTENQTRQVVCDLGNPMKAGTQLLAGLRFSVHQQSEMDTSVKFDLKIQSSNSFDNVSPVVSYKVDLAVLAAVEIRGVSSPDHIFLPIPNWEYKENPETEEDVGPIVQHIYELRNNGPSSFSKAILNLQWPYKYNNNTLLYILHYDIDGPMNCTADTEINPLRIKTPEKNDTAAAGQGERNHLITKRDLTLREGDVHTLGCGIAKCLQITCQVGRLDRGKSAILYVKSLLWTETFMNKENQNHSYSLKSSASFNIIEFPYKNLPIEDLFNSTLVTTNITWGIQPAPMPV
T3 sequence (O54890 26-717 limits assumed): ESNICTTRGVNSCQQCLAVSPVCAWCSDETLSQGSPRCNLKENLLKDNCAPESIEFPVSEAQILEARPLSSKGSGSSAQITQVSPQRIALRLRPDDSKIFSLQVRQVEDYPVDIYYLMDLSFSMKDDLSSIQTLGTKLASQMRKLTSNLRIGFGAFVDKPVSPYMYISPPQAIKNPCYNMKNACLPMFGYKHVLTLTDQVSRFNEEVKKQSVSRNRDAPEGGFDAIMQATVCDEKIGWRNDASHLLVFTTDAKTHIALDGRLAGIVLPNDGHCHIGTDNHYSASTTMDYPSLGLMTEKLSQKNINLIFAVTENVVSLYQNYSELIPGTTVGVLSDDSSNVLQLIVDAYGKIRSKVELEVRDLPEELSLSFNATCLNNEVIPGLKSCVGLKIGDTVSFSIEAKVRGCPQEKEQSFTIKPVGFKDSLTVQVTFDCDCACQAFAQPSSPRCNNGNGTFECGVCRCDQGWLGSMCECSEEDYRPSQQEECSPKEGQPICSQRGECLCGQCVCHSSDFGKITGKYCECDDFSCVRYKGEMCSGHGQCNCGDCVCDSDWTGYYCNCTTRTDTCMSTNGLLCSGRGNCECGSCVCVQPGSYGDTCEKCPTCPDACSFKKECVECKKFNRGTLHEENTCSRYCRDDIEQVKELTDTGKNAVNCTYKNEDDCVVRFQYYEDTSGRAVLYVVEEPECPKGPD
T6 sequence (P43406 31-988 limits assumed): as the sequence (P43406 31-988 limits assumed) above
T6 sequence (Q0VBD0 22-681 limits assumed): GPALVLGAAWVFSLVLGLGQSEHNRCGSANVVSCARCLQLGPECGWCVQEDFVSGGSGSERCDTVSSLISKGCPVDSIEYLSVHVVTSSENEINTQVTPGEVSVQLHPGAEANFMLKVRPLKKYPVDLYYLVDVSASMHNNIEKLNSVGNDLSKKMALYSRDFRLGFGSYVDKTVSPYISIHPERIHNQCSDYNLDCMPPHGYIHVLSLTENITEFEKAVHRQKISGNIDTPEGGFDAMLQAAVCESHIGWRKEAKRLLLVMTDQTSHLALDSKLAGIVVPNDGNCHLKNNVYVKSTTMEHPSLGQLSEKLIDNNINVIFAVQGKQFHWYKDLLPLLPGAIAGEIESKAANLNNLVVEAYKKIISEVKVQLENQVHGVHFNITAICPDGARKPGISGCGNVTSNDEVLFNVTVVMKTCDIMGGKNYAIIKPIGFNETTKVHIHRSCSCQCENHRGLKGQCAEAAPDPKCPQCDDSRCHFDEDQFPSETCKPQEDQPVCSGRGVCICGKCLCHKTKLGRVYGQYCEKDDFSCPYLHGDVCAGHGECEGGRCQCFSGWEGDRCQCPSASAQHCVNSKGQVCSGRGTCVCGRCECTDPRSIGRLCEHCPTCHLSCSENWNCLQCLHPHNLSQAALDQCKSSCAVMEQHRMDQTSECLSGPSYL
T5 sequence (P43406 31-988 limits assumed): as the sequence (P43406 31-988 limits assumed) above
T5 sequence (Q9Z0T9 22-708 limits assumed): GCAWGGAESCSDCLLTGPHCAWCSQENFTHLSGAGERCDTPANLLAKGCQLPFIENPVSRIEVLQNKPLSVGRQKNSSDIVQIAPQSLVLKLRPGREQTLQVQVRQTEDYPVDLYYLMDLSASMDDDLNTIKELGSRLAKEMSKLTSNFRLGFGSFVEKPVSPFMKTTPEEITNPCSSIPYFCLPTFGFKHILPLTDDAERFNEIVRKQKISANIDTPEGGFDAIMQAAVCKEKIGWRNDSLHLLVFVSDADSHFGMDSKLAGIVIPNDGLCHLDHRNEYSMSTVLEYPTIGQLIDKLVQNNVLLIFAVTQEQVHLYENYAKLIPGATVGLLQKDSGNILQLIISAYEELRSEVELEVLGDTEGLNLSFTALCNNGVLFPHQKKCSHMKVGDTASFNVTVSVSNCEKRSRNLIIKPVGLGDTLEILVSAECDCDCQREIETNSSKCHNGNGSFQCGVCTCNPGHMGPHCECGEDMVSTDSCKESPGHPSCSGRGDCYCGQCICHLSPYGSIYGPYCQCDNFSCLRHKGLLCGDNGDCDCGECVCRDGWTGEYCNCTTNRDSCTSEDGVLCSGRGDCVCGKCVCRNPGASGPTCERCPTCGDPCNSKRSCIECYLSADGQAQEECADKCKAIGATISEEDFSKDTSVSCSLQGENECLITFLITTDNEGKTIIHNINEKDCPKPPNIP
T8 sequence (P43406 31-988 limits assumed): as the sequence (P43406 31-988 limits assumed) above
T8 sequence (P09055 21-728 limits assumed): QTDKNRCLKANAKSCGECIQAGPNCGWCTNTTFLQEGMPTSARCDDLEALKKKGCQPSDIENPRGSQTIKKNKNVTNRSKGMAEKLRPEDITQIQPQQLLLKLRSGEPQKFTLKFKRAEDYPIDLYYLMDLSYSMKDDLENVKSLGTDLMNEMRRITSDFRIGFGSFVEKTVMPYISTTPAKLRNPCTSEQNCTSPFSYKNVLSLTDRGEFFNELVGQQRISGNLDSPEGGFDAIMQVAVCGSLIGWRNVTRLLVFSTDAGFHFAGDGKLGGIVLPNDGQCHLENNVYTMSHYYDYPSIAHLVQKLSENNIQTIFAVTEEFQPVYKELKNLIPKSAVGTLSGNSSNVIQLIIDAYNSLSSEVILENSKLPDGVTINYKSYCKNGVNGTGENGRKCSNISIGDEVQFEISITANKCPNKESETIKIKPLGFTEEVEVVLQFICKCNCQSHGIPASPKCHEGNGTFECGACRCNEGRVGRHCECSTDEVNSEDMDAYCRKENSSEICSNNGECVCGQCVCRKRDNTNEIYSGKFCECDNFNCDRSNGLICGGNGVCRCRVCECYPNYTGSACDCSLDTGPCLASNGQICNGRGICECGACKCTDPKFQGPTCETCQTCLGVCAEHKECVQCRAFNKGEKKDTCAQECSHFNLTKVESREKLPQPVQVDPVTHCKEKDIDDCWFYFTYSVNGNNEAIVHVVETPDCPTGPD
T4 sequence (P43406 31-988 limits assumed): as the sequence (P43406 31-988 limits assumed) above
T4 sequence (O70309 24-719 limits assumed): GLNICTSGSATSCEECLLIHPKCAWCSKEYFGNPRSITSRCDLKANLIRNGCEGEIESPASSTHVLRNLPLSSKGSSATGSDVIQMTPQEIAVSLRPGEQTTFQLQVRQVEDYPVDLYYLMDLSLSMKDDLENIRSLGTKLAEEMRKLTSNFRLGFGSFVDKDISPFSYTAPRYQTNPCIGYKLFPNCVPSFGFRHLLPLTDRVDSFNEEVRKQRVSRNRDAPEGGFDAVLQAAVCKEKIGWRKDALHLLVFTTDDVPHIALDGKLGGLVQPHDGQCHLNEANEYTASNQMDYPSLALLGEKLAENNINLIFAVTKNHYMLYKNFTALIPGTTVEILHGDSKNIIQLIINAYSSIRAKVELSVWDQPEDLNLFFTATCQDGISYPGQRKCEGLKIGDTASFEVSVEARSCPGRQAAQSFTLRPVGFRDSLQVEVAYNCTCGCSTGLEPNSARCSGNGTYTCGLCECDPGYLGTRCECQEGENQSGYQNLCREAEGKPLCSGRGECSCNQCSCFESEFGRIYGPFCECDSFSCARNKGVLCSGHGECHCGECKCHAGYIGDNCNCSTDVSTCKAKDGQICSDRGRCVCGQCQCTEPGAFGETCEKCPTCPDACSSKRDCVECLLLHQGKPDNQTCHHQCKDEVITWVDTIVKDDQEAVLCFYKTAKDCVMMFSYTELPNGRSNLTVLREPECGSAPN

B1: mAb-24: control antibody abituzumab; 17E6, a therapeutic pan-αv integrin antibody (antibody, chains of the INN, looked up, V domains shown)
VH: QVQLQQSGGELAKPGASVKVSCKASGYTFSSFWMHWVRQAPGQGLEWIGYINPRSGYTEYNEIFRDKATMTTDTSTSTAYMELSSLRSEDTAVYYCASFLGRGAMDYWGQGTTVTVSS
VL: DIQMTQSPSSLSASVGDRVTITCRASQDISNYLAWYQQKPGKAPKLLIYYTSKIHSGVPSRFSGSGSGTDYTFTISSLQPEDIATYYCQQGNTFPYTFGQGTKVEIK
Consider B1, for which the “binding to human αvβ1 integrin in CELISA” value in experiment [1] is recorded as “preferentially bound”. The “binding to human αvβ6 integrin in CELISA” value in experiment [2] was “preferentially bound”. Moreover, the IC50 in experiment [3], in experiment [4], in [5], in experiment [6], in experiment [7] and in [8] was > 250 nM throughout. For the same molecule, the IC50 was > 1000 nM in [15] and > 250 nM in [16]. Also, the “inhibition of latent TGFβ activation, human αvβ1 co-culture” value in experiment [9] is recorded as “potent”. In addition, the “inhibition of latent TGFβ activation, human αvβ6 co-culture” value in [10] is “potent”. Further, in [11], the “inhibition of latent TGFβ activation, human αvβ8 co-culture” value is on record as “potent”. In [12], the “inhibition of latent TGFβ activation, mouse αvβ1 co-culture” value is “minimal activity”. Besides, the “inhibition of latent TGFβ activation, mouse αvβ6 co-culture” value in experiment [13] was “minimal activity”. Also, the “inhibition of latent TGFβ activation, mouse αvβ8 co-culture” value in [14] is given as “minimal activity”.

The record behind these values is patent US20250313635A1, “ANTI-INTEGRIN ANTIBODIES AND USES THEREOF” (Merck Sharp & Dohme LLC, priority 2022, published 2025).
